T1: interferon-alpha receptor (human, UniProt P17181 28-557; P48551 27-515)
T1 sequence (looked up) 1: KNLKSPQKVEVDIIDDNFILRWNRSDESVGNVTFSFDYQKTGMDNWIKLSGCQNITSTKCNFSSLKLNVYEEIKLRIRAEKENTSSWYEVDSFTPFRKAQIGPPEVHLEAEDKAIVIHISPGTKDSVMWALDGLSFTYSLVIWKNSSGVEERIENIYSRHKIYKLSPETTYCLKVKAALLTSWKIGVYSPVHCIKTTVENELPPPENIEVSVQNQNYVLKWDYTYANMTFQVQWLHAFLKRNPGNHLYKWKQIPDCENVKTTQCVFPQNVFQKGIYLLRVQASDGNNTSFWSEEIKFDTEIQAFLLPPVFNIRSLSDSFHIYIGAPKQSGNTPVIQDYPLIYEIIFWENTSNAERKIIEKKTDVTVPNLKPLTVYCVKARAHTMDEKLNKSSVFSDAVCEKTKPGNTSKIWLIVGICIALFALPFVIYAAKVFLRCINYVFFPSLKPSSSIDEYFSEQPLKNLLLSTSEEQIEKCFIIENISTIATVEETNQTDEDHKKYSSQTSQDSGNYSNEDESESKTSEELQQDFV
T1 sequence (looked up) 2: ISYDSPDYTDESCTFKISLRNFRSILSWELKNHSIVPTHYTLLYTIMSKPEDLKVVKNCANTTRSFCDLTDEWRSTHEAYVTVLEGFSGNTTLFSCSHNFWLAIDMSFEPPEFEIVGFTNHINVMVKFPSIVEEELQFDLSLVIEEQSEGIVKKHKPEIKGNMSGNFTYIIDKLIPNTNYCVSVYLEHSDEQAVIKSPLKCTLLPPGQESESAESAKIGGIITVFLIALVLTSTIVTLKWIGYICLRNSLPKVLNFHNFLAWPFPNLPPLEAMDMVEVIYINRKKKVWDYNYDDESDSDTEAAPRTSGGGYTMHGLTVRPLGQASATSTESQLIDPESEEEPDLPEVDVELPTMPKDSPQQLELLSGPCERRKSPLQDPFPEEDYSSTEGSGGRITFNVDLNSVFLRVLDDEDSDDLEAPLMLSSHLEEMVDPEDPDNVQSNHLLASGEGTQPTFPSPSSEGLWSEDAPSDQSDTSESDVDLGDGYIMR


Columns and labels:
[1] = target: T1, interferon-alpha receptor; assay: cell-based or functional assay
[2] = target: T1, interferon-alpha receptor; assay: cell-based or functional assay; remark: listed apart in the source

Binder	Antiviral activity relative to huIFNα-2b (EC50 huIFN-alpha 2b/EC50 sample), EMCV/HuH-7 assay [1]	Antiproliferative activity relative to huIFNα-2b (EC50 huIFN-alpha 2b/EC50 sample), Daudi cell thymidine incorporation assay [2]
B9x27 (ligand) CDLPQTHSLSNRRTLMLMAQMRRISPFSCLKDRHDFGFPEEEFDGHQFQKVQAIFLLYELIQQTFNLFSTKNSSAAWDETLLEKFYIELFQQMNNLEACVIQEVGVEEIALMNVDSILAVRKYFRRITLYLTKKKYSPCSWEVVRAEIMRSFSFSTNLQKRLRRKE	≥ 10 fold relative to huIFNα-2b	≤ 0.25 fold relative to huIFNα-2b
B9x22 (ligand) CDLPQTHSLSNRRTLMLMAQMRRISPFSCLKDRHDFGFPEEEFDGHHFQKTQAISVLHELIQQTFNLFSTKNSSAAWDETLLEKFYIELFQQMNNLEACVIQEVGVEEIALMNVDSILAVRKYFRRITLYLTEKKYSPCAWEVVRAEIMRSFSFSTNLQKRLRRKE	≥ 10 fold relative to huIFNα-2b	≤ 0.5 fold relative to huIFNα-2b
B9x26 (ligand) CDLPQTHSLSNRRTLMLMAQMRRISPFSCLKDRHDFGFPEEEFDGHHFQKTQAISVLHELIQQTFNLFSTKNSSAAWDETLLEKFYIELFQQMNNLEACVIQEVGVEEIALMNVDSILAVRKYFRRITLYLTKKKYSPCSWEVVRAEIMRSFSFSTNLQKRLRRKE	≥ 5 fold relative to huIFNα-2b	≤ 0.25 fold relative to huIFNα-2b
B9x24 (ligand) CDLPQTHSLSNRRTLMLMAQMRRISPFSCLKDRHDFGFPEEEFDGHQFQKTQAISVLHELIQQTFNLFSTKNSSAAWDETLLEKFYIELFQQMNNLEACVIQEVGVEEIALMNVDSILAVRKYFRRITLYLTKKKYSPCSWEVVRAEIMRSFSFSTNLQKRLRRKE	≥ 5 fold relative to huIFNα-2b	≤ 0.25 fold relative to huIFNα-2b
B9x25 (ligand) CDLPQTHSLSNRRTLMLMAQMRRISPFSCLKDRHDFGFPEEEFDGHHFQKVQAIFLLYELIQQTFNLFSTKNSSAAWDETLLEKFYIELFQQMNNLEACVIQEVGVEEIALMNVDSILAVRKYFRRITLYLTEKKYSPCAWEVVRAEIMRSFSFSTNLQKRLRRKE	≥ 10 fold relative to huIFNα-2b	≤ 0.5 fold relative to huIFNα-2b
B9x21 (ligand) CDLPQTHSLSNRRTLMLMAQMRRISPFSCLKDRHDFGFPEEEFDGHQFQKTQAISVLHELIQQTFNLFSTKNSSAAWDETLLEKFYIELFQQMNNLEACVIQEVGVEEIALMNVDSILAVRKYFRRITLYLTEKKYSPCAWEVVRAEIMRSFSFSTNLQKRLRRKE	≥ 10 fold relative to huIFNα-2b	≤ 0.5 fold relative to huIFNα-2b
B9x23 (ligand) CDLPQTHSLSNRRTLMLMAQMRRISPFSCLKDRHDFGFPEEEFDGHQFQKVQAIFLLYELIQQTFNLFSTKNSSAAWDETLLEKFYIELFQQMNNLEACVIQEVGVEEIALMNVDSILAVRKYFRRITLYLTEKKYSPCAWEVVRAEIMRSFSFSTNLQKRLRRKE	≥ 10 fold relative to huIFNα-2b	≤ 0.5 fold relative to huIFNα-2b
B9x28 (ligand) CDLPQTHSLSNRRTLMLMAQMRRISPFSCLKDRHDFGFPEEEFDGHHFQKVQAIFLLYELIQQTFNLFSTKNSSAAWDETLLEKFYIELFQQMNNLEACVIQEVGVEEIALMNVDSILAVRKYFRRITLYLTKKKYSPCSWEVVRAEIMRSFSFSTNLQKRLRRKE	≥ 10 fold relative to huIFNα-2b	
IFN-alpha Con1 (ligand) CDLPQTHSLGNRRALILLAQMRRISPFSCLKDRHDFGFPQEEFDGNQFQKAQAISVLHEMIQQTFNLFSTKDSSAAWDESLLEKFYTELYQQLNDLEACVIQEVGVEETPLMNVDSILAVKKYFQRITLYLTEKKYSPCAWEVVRAEIMRSFSLSTNLQERLRRKE	~2 fold relative to huIFNα-2b	~1.5 fold relative to huIFNα-2b
25Ep05 (ligand) CDLPQTHSLSNRRTLMLMAQMRRISPFSCLKDRHDFGFPEEEFDGHQFQKTQAISVLHELIQQTFNLFSTKDSSAAWDETLLEKFYIELFQQMNDLEACVIQEVGVEEIALMNVDSILAVRKYFRRITLYLTEKKYSPCAWEVVRAEIMRSFSLSTNLQESLRSKE	≥ 2.5 fold relative to huIFNα-2b	
B9x14 (ligand) CDLPQTHSLGHRRTMMLLAQMRRISLFSCLKDRHDFRFPQEEFDGNHFQKVQAIFLFYEMMQQTFNLFSTKNSSAAWDETLLEKFYIELFQQMNDLEACVMQEVGVEETPLMNVDSILAVRKYFQRITLYLTEKKYSPCAWEVVRAEIMRSFSFSTNLQKRLRRKE	≥ 10 fold relative to huIFNα-2b	≤ 0.5 fold relative to huIFNα-2b
B9x17 (ligand) CDLPQTHSLGHRRTMMLLAQMRRISLFSCLKDRHDFRFPQEEFDGNHFQKTQAISVFHEMMQQTFNLFSTKNSSAAWDETLLEKFYIELFQQMNDLEACVMQEVGVEETPLMNVDSILAVRKYFQRITLYLTEKKYSPCAWEVVRAEIMRSFSFSTNLQKRLRRKE	≥ 10 fold relative to huIFNα-2b	≤ 0.5 fold relative to huIFNα-2b
B9x12 (ligand) CDLPQTHSLGHRRTMMLLAQMRRISLFSCLKDRHDFRFPQEEFDGNQFQKVQAIFLFYEMMQQTFNLFSTKNSSAAWDETLLEKFYIELFQQMNDLEACVMQEVGVEETPLMNVDSILAVRKYFQRITLYLTKKKYSPCSWEVVRAEIMRSFSFSTNLQKRLRRKE	≥ 10 fold relative to huIFNα-2b	
B9x11 (ligand) CDLPQTHSLGHRRTMMLLAQMRRISLFSCLKDRHDFRFPQEEFDGNHFQKVQAIFLFYEMMQQTFNLFSTKNSSAAWDETLLEKFYIELFQQMNDLEACVMQEVGVEETPLMNVDSILAVRKYFQRITLYLTKKKYSPCSWEVVRAEIMRSFSFSTNLQKRLRRKE	≥ 10 fold relative to huIFNα-2b	
B9x18 (ligand) CDLPQTHSLGHRRTMMLLAQMRRISLFSCLKDRHDFRFPQEEFDGNQFQKTQAISVFHEMMQQTFNLFSTKNSSAAWDETLLEKFYIELFQQMNDLEACVMQEVGVEETPLMNVDSILAVRKYFQRITLYLTEKKYSPCAWEVVRAEIMRSFSFSTNLQKRLRRKE	≥ 10 fold relative to huIFNα-2b	≤ 0.25 fold relative to huIFNα-2b
B9x15 (ligand) CDLPQTHSLGHRRTMMLLAQMRRISLFSCLKDRHDFRFPQEEFDGNQFQKTQAISVFHEMMQQTFNLFSTKNSSAAWDETLLEKFYIELFQQMNDLEACVMQEVGVEETPLMNVDSILAVRKYFQRITLYLTKKKYSPCSWEVVRAEIMRSFSFSTNLQKRLRRKE	≥ 5 fold relative to huIFNα-2b	≤ 0.25 fold relative to huIFNα-2b
B9x16 (ligand) CDLPQTHSLGHRRTMMLLAQMRRISLFSCLKDRHDFRFPQEEFDGNQFQKVQAIFLFYEMMQQTFNLFSTKNSSAAWDETLLEKFYIELFQQMNDLEACVMQEVGVEETPLMNVDSILAVRKYFQRITLYLTEKKYSPCAWEVVRAEIMRSFSFSTNLQKRLRRKE	≥ 10 fold relative to huIFNα-2b	≤ 0.25 fold relative to huIFNα-2b
